Measured values taken from patent US20130102009A1, “SIRTUIN ACTIVATORS AND ACTIVATION ASSAYS” (priority 2010, published 2013).

Assays:
Assay in all cases: Steady-state kinetic parameters for SIRT1 substrates (PNC1-GDH-coupled assay)
Type in all cases: biochemical, human
Conditions in all cases: other: 25° C., pH 7.5, [NAD+]o = 2 mM, [SIRT1]o 50-1,000 nM
[1] = substrate: CC(=O)NCCCC[C@H](NC(=O)[C@H](CCCCN)NC(=O)[C@H](Cc1c[nH]cn1)NC(=O)[C@H](CCCNC(=N)N)NC(C)=O)C(N)=O
Method: (§1) All peptides were prepared by BioPeptide (San Diego, Calif.) and shown to be at least 95% pure by analytical HPLC analysis. Bovine glutamate dehydrogenase (GDH), α-ketoglutarate, NADH and NAD^+ were from Sigma Chemical Company. Full-length, human SIRT1 and the truncated version used for biophysical studies SIRT1(183-664) were prepared as described previously, and shown to have equivalent kinetic properties (Milne et al. (2007) Nature 450, 712-716). The nicotinamidase PNC1 was prepared as described by Denu and colleagues (Smith et al. (2009) Anal Biochem 394, 101-109).
(§2) To determine the interaction of STACs with SIRT1 two kinetic methods were employed. One, which was used for TAMRA-peptide, desTAMRA-peptide, des(biotin,TAMRA)-peptide, and p53-20 mer, used a previously described mass spectroscopic method for detection of peptide reaction products (Milne et al. (2007) Nature 450, 712-716). The other, used with peptides of general structure Ac-Arg-His-Lys-Lys^Ac-X, used a continuous, enzyme-coupled method reported previously (Smith et al. (2009) Anal Biochem 394, 101-109), in which the SRT1 product nicotinamide is first converted into nicotinic acid and ammonia by the action of PNC1, and the ammonia then used by GDH to convert α-ketoglutarate into glutamate. This reaction occurs with oxidation of NADH to NAD^+ which is accompanied by a change in absorbance at 340 nm (Δε340=−6,200 M^−1 cm^−1).
(§3) The kinetic experiments used to characterize activators were run on a Perkin Elmer Lambda 25 spectrophotometer equipped with a water-jacketed, eight-cell changer maintained at 25° C. In a typical kinetic experiment, all components of the reaction solution except SIRT1 were added to a 1 mL cuvette and allowed to reach thermal equilibrium. Final concentrations of the coupling system components were: 1 μM PNC1, 0.23 mM NADH, 3.4 mM α-ketoglutarate, and 20 U/mL bovine GDH. This solution also contained peptide substrate, NAD^.0., and activator, at concentrations indicated in the text. The final DMSO concentration was kept constant at 1%, and the buffer used in these experiments was 50 mM HEPES, 150 mM NaCl, pH 7.5. While the system was reaching thermal equilibrium, the absorbance was monitored to provide an accurate estimate of the background rate, which was subtracted from the reaction rate after the addition of SIRT1.
(§4) The parameters reported in this table were all determined using the PNC1-GDH-coupled assay. Kinetic parameters for the four 20 mers were also estimated using the mass spectroscopy-based assay first described by Milne et al. ((2007) Nature 450, 712-716) and agree with those reported in Table 3.

[2] = substrate: CC(=O)NCCCC[C@H](NC(=O)[C@H](CCCCN)NC(=O)[C@H](Cc1c[nH]cn1)NC(=O)[C@H](CCCNC(=N)N)NC(C)=O)C(=O)N[C@@H](Cc1c[nH]c2ccccc12)C(N)=O
Method: as §1, §2, §3, §4

[3] = substrate: CCCC[C@H](NC(=O)[C@H](CCCCNC(C)=O)NC(=O)[C@H](CO)NC(=O)[C@H](Cc1c[nH]cn1)NC(=O)[C@H](CO)NC(=O)[C@H](CO)NC(=O)[C@@H](NC(=O)[C@H](CO)NC(=O)[C@H](CCC(N)=O)NC(=O)CNC(=O)[C@H](CCCCNC(=O)CCCC[C@@H]1SC[C@@H]2NC(=O)N[C@@H]21)NC(=O)[C@H](CCC(=O)O)NC(=O)[C@H](CCC(=O)O)NC(C)=O)[C@@H](C)O)C(=O)N[C@@H](CO)C(=O)N[C@H](C(=O)N[C@@H](CCC(=O)O)C(=O)NCC(=O)N[C@@H](CCCCN)C(=O)N[C@@H](CCC(=O)O)C(=O)N[C@@H](CCC(=O)O)C(N)=O)[C@@H](C)O
Method: as §1, §2, §3, §4

[4] = substrate: CC(=O)NCCCC[C@H](NC(=O)[C@H](CCCCN)NC(=O)[C@H](Cc1c[nH]cn1)NC(=O)[C@H](CCCNC(=N)N)NC(C)=O)C(=O)Nc1ccc2c(C)cc(=O)oc2c1
Method: as §1, §2, §3, §4

[5] = substrate: CC(=O)NCCCC[C@H](NC(=O)[C@H](CCCCN)NC(=O)[C@H](Cc1c[nH]cn1)NC(=O)[C@H](CCCNC(=N)N)NC(C)=O)C(=O)N[C@@H](Cc1ccccc1)C(N)=O
Method: as §1, §2, §3, §4

[6] = substrate: CC(=O)NCCCC[C@H](NC(=O)[C@H](CCCCN)NC(=O)[C@H](Cc1c[nH]cn1)NC(=O)[C@H](CCCNC(=N)N)NC(C)=O)C(=O)N[C@@H](C)C(N)=O
Method: as §1, §2, §3, §4

B1: SIRT1 (Homo sapiens) (protein)
chain: MADEAALALQPGGSPSAAGADREAASSPAGEPLRKRPRRDGPGLERSPGEPGGAAPEREVPAAARGCPGAAAAALWREAEAEAAAAGGEQEAQATAAAGEGDNGPGLQGPSREPPLADNLYDEDDDDEGEEEEEAAAAAIGYRDNLLFGDEIITNGFHSCESDEEDRASHASSSDWTPRPRIGPYTFVQQHLMIGTDPRTILKDLLPETIPPPELDDMTLWQIVINILSEPPKRKKRKDINTIEDAVKLLQECKKIIVLTGAGVSVSCGIPDFRSRDGIYARLAVDFPDLPDPQAMFDIEYFRKDPRPFFKFAKEIYPGQFQPSLCHKFIALSDKEGKLLRNYTQNIDTLEQVAGIQRIIQCHGSFATASCLICKYKVDCEAVRGDIFNQVVPRCPRCPADEPLAIMKPEIVFFGENLPEQFHRAMKYDKDEVDLLIVIGSSLKVRPVALIPSSIPHEVPQILINREPLPHLHFDVELLGDCDVIINELCHRLGGEYAKLCCNPVKLSEITEKPPRTQKELAYLSELPPTPLHVSEDSSSPERTSPPDSSVIVTLLDQAAKSNDDLDVSESKGCMEEKPQEVQTSRNVESIAEQMENPDLKNVGSSTGEKNERTSVAGTVRKCWPNRVAKEQISRRLDGNQYLFLPPNRYIFHGAEVYSDSEDDVLSSSSCGSNSDSGTCQSPSLEEPMEDESEIEEFYNGLEDEPDVPERAGGAGFGTDGDDQEAINEAISVKQEVTDMNYPSNKS
With B1 the Km [1] was 23 µM, the Km [2] was 4.0 µM and the Km [3] was 33 µM. It also gave a Km [4] of 110 µM, a Km [5] of 7.1 µM and a Km [6] of 13 µM.
